For this data set, the target named is free histones (mixture of H1, H3, H2B, H2A and H4; Boehringer Mannheim).

B1: GST-CLR4(127-490) (protein)
chain: KQSTALTTNDTSIILDDSLHTNSKKLGKTRNEVKEESQKRELVSNSIKEATSPKTSSILTKPRNPSKLDSYTHLSFYEKRELFRKKLREIEGPEVTLVNEVDDEPCPSLDFQFISQYRLTQGVIPPDPNFQSGCNCSSLGGCDLNNPSRCECLDDLDEPTHFAYDAQGRVRADTGAVIYECNSFCSCSMECPNRVVQRGRTLPLEIFKTKEKGWGVRSLRFAPAGTFITCYLGEVITSAEAAKRDKNYDDDGITYLFDLDMFDDASEYTVDAQNYGDVSRFFNHSCSPNIAIYSAVRNHGFRTIYDLAFFAIKDIQPLEELTFDYAGAKDFSPVQSQKSQQNRISKLRRQCKCGSANCRGWLFG
With B1, the HMTase activity result is “The SU(VAR)3-9 family members assayed, SUV39H1, Suv39h2 and CLR4, displayed HMTase activity”.

B2: GST-SUV39H1(82-412) (protein)
chain: CVRILKQFHKDLERELLRRHHRSKTPRHLDPSLANYLVQKAKQRRALRRWEQELNAKRSHLGRITVENEVDLDGPPRAFVYINEYRVGEGITLNQVAVGCECQDCLWAPTGGCCPGASLHKFAYNDQGQVRLRAGLPIYECNSRCRCGYDCPNRVVQKGIRYDLCIFRTDDGRGWGVRTLEKIRKNSFVMEYVGEIITSEEAERRGQIYDRQGATYLFDLDYVEDVYTVDAAYYGNISHFVNHSCDPNLQVYNVFIDNLDERLPRIAFFATRTIRAGEELTFDYNMQVDPVDMESTRMDSNFGLAGLPGSPKKRVRIECKCGTESCRKYLF
As to B2, the HMTase activity entry was “The SU(VAR)3-9 family members assayed, SUV39H1, Suv39h2 and CLR4, displayed HMTase activity”.
